Source: the supplement of paper PMC10567573

B1: STK38L (parent)
chain: FLPGGDMMTLLMKKDTLTEEETQF
B2: KLHDC10 (parent)
chain: FGGTGIPFGESNGNGVHVCNVKYK

Variants of: B1
Experiment: protein stability index of a GFP-peptide fusion (GPS, HEK-293T) (PSI 1-6); higher = more stable
Conditions: c terminus: a fixed tail appended
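Also: lentivirally expressed fusions sorted by FACS into six bins by GFP to DsRed ratio, PSI derived from sequencing read proportions per bin multiplied by bin number.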

Variant | protein stability index
FLPGGDMMTLLMKKDTLTEEETGF [Q23G] | 2.61
FLPGGDMMTLLMKKDTLTEEETWF [Q23W] | 1.43
FLPGGDMMTLLMKKDTLTEEETFF [Q23F] | 1.24
FLPGGDMMTLLMKKDTLTEEETSF [Q23S] | 2.91
FLPGGDMMTLLMKKDTLTEEETYF [Q23Y] | 1.88
FLPGGDMMTLLMKKDTLTEEETPF [Q23P] | 2.21
FLPGGDMMTLLMKKDTLTEEETCF [Q23C] | 2.24
FLPGGDMMTLLMKKDTLTEEETLF [Q23L] | 1.74
FLPGGDMMTLLMKKDTLTEEETNF [Q23N] | 2.37
FLPGGDMMTLLMKKDTLTEEETMF [Q23M] | 2.4
FLPGGDMMTLLMKKDTLTEEETIF [Q23I] | 2.12
FLPGGDMMTLLMKKDTLTEEETRF [Q23R] | 3.09
FLPGGDMMTLLMKKDTLTEEETAF [Q23A] | 2.05
FLPGGDMMTLLMKKDTLTEEETVF [Q23V] | 2.25
FLPGGDMMTLLMKKDTLTEEETTF [Q23T] | 2.09
FLPGGDMMTLLMKKDTLTEEETKF [Q23K] | 2.45
FLPGGDMMTLLMKKDTLTEEETHF [Q23H] | 2.27
FLPGGDMMTLLMKKDTLTEEETDF [Q23D] | 3.06
FLPGGDMMTLLMKKDTLTEEETEF [Q23E] | 2.25

Variant | protein stability index
FLPGGDMMTLLMKKDTLTEEETQK [F24K] | 2.53
FLPGGDMMTLLMKKDTLTEEETQS [F24S] | 2.19
FLPGGDMMTLLMKKDTLTEEETQH [F24H] | 2.44
FLPGGDMMTLLMKKDTLTEEETQV [F24V] | 2.65
FLPGGDMMTLLMKKDTLTEEETQW [F24W] | 2.09
FLPGGDMMTLLMKKDTLTEEETQN [F24N] | 2.65
FLPGGDMMTLLMKKDTLTEEETQY [F24Y] | 2.52
FLPGGDMMTLLMKKDTLTEEETQC [F24C] | 1.77
FLPGGDMMTLLMKKDTLTEEETQR [F24R] | 2.09
FLPGGDMMTLLMKKDTLTEEETQT [F24T] | 2.42
FLPGGDMMTLLMKKDTLTEEETQM [F24M] | 2.4
FLPGGDMMTLLMKKDTLTEEETQP [F24P] | 2.64
FLPGGDMMTLLMKKDTLTEEETQL [F24L] | 3.02
FLPGGDMMTLLMKKDTLTEEETQI [F24I] | 2.77
FLPGGDMMTLLMKKDTLTEEETQG [F24G] | 2.84
FLPGGDMMTLLMKKDTLTEEETQQ [F24Q] | 2.58
FLPGGDMMTLLMKKDTLTEEETQE [F24E] | 2.35
FLPGGDMMTLLMKKDTLTEEETQA [F24A] | 2.28
FLPGGDMMTLLMKKDTLTEEETQD [F24D] | 2.97

Variants of: B2
Experiment: as above
Conditions: c terminus: a fixed tail appended

Variant | protein stability index
FGGTLIPFGESNGNGVHVCNVKYK [G5L] | 1.89
FGGTCIPFGESNGNGVHVCNVKYK [G5C] | 1.71
FGGTVIPFGESNGNGVHVCNVKYK [G5V] | 1.9
FGGTHIPFGESNGNGVHVCNVKYK [G5H] | 1.92
FGGTGIPFGESNGNGVHCCNVKYK [V18C] | 2.06
FGGTGIPFGESNGNGVHPCNVKYK [V18P] | 1.97
FGGTGIPFGESNGNGVHRCNVKYK [V18R] | 2.03
FGGTGIPFGESNGNGVHECNVKYK [V18E] | 2.75
FGGTGIPFGESNGNGVHVCNVEYK [K22E] | 2.4
FGGTGIPFGESNGNGVHVCNVMYK [K22M] | 1.9
FGGTGIPFGESNGNGVHVCNVVYK [K22V] | 2.24
FGGTGIPFGESNGNGVHVCNVIYK [K22I] | 1.83
FGVTGIPFGESNGNGVHVCNVKYK [G3V] | 2.98
FGFTGIPFGESNGNGVHVCNVKYK [G3F] | 2.66
FGHTGIPFGESNGNGVHVCNVKYK [G3H] | 2.54
FGQTGIPFGESNGNGVHVCNVKYK [G3Q] | 2.88
FGTTGIPFGESNGNGVHVCNVKYK [G3T] | 2.81
FGPTGIPFGESNGNGVHVCNVKYK [G3P] | 2.78
FGYTGIPFGESNGNGVHVCNVKYK [G3Y] | 1.95

Variant | protein stability index
FGMTGIPFGESNGNGVHVCNVKYK [G3M] | 2.29
FGGTGIPFGESNGNGVHVCQVKYK [N20Q] | 1.87
FGGTGIPFGESNGNGVHVCMVKYK [N20M] | 1.38
FGGTGIPFGESNGNGVHVCWVKYK [N20W] | 2.83
FGGTGIPFGESNGNGVHVCVVKYK [N20V] | 1.55
FGGTGIPFGESNGNGVHVCEVKYK [N20E] | 1.92
FGGTGIPFGESNGNGVHVCRVKYK [N20R] | 2.15
FGGTGIPFGESNGNGVHVCIVKYK [N20I] | 1.82
FGGTGIPFGESNGNGVHVCLVKYK [N20L] | 1.36
FGGTGIPFGESNGNGVHVCYVKYK [N20Y] | 2.23
FGGTGIPFGESNGNGVHVCKVKYK [N20K] | 2.44
FGGTGIPFGESNGNGVHVINVKYK [C19I] | 1.75
FGGTGIPFGESNGNGVHVLNVKYK [C19L] | 1.97
FGGTGIPFGESNGNGVHVKNVKYK [C19K] | 2.08
FGGTGIPFGESNGNGVHVSNVKYK [C19S] | 2.01
FGGTGIPFGESNGNGVHVDNVKYK [C19D] | 2.62
FGGTGIPFGESNGNGVHVPNVKYK [C19P] | 2.21
FGGTGIPFGESNGNGVHVMNVKYK [C19M] | 2.15
FGGTGIPFGESNGNGVHVNNVKYK [C19N] | 2.38

Variant | protein stability index
FGGTGMPFGESNGNGVHVCNVKYK [I6M] | 2.07
FGGTGDPFGESNGNGVHVCNVKYK [I6D] | 3.29
FGGTGWPFGESNGNGVHVCNVKYK [I6W] | 2.27
FGGTGPPFGESNGNGVHVCNVKYK [I6P] | 1.94
FGGTGAPFGESNGNGVHVCNVKYK [I6A] | 2.1
FGGTGGPFGESNGNGVHVCNVKYK [I6G] | 1.96
FGGLGIPFGESNGNGVHVCNVKYK [T4L] | 1.82
FGGEGIPFGESNGNGVHVCNVKYK [T4E] | 2.68
FGGIGIPFGESNGNGVHVCNVKYK [T4I] | 3.13
FGGFGIPFGESNGNGVHVCNVKYK [T4F] | 2.08
FGGVGIPFGESNGNGVHVCNVKYK [T4V] | 2.5
FTGTGIPFGESNGNGVHVCNVKYK [G2T] | 1.97
FEGTGIPFGESNGNGVHVCNVKYK [G2E] | 3.9
FDGTGIPFGESNGNGVHVCNVKYK [G2D] | 3.46
FYGTGIPFGESNGNGVHVCNVKYK [G2Y] | 2.55
FGGTGIPFGESNGNGEHVCNVKYK [V16E] | 2.97
FGGTGIPFGESNGNGRHVCNVKYK [V16R] | 2.97
FGGTGIPFGESNGNGGHVCNVKYK [V16G] | 2.47
